Experiments:
[1] = target: T1, 生物素标记人CSF1R Fc蛋白 (human, UniProt P07333 20-512, biotin-labelled (site not stated)); assay: binding assays of Example 2 (capture ELISA with biotin-labelled human CSF1R Fc; flow cytometry on 293F cells expressing human CSF1R), summarised in Table 2
T1 construct: range 20-512; also called CSF1R Fc biotin; 人CSF1R抗原; not shown: human IgG1 Fc tag at the C-terminus

[2] = target: T2, 重组人CSF1R带his标签的蛋白 (human, UniProt P07333 20-512); assay: ELISA screen of hybridoma supernatant on coated human CSF1R-his
T2 construct: Bought protein used as coating antigen for hybridoma screening; also called 人CSF1R-his; CSF1R-his蛋白抗原; not shown: his tag
T2 sequence (P07333 20-512 limits assumed): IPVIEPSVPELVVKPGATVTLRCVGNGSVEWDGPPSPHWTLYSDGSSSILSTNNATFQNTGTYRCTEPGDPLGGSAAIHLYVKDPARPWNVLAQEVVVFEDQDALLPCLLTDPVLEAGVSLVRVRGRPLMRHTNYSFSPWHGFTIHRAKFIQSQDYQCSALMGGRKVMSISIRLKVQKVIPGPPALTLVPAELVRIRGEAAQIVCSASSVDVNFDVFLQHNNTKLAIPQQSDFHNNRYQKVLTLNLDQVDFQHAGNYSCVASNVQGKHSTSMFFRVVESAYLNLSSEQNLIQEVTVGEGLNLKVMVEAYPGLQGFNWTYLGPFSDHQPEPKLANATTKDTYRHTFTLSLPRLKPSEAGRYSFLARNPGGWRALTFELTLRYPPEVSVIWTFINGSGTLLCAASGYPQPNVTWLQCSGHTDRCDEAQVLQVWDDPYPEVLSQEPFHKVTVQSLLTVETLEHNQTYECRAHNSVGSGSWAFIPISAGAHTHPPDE

T1 sequence (P07333 20-512 limits assumed): as above

binding result [1]: binds
binding result [2]: binds
B1: 1G6 抗人CSF-1R小鼠单克隆抗体 (antibody, V domains shown)
VH: QIQLVQSGPELKKPGETVKISCKASGYTFIIYGMNWVKQTPGRGLKWMGWINTYTGEPTYADDFKGRFAFSLETSASTASLQINNLKNEDTATYFCAREVYDGYPSHYAMDYWGQGTSVTVSS
VL: DIVMTQAAPSVPVTPGESVSISCRSSKSLLHSNGNTYLYWFLQRPGQSPQLLIYWMSNLASGVPDRFSGSGSGTAFTLRISRVEAEDVGVYYCLQHLEYPYTFGGGTKLEIK
notes: also called 1G6抗体; 本发明的抗人CSF-1R单克隆抗体
